In article doi:10.1101/2020.04.20.050518 one finds stoichiometry N data, which are given here for one substance.

The assay concerns the target 50S ribosomal subunit. Kind of assay: cryo-EM 2D classification.

Usually stoichiometry N stands for the number of molecules, sites or subunits per partner or assembly.

50S ribosomal subunit (complex): the stoichiometry N was found to be 2.
